Molecular target: Drosophila melanogaster SERINC (Drosophila melanogaster)
Experiment: cryo-EM structure

Drosophila melanogaster SERINC (natural protein)
stoichiometry N: 6

From article PMC6956856
